Patent US20190201435, “MODULATORS OF VAULT RNAS FOR USE IN THE TREATMENT OF DISEASES” (European Molecular Biology Laboratory, published 2019)

How the values were obtained:
MBP tag only = MBP tag only (UniProt P0AEX9 P0AEX9:27-396); test: EMSA; MBP tag control
[1] = biological target: p62 (SQSTM1, sequestosome 1) wild type (UniProt Q13501 Q13501:1-440); test: EMSA; apparent Kd, TBE pH 8.3 gel; competed by cold vtRNA1-1; conditions: tags: MBP; (radioactive in EMSA); terminal stem loop, single-stranded loops in central domain

B1: vtRNA1-1 (ssRNA)
RNA: GGCUGGCUUUAGCUCAGCGGUUACUUCGACAGUUCUUUAAUUGAAACAAGCAACCUGUCUGGGUUGUUCGAGACCCGCGGGCGCUCUCCAGUCCUUUU
In the case of B1, the binding result (MBP tag only) is reported as “no binding” and the Kd [1] is reported as ~60 nM.
